Results from patent US20030236190A1 (published 2003).
Like-named read-outs stand apart in the source and are kept apart here. No end group written: not given here.

Key:
[1] = target: T1, Human insulin receptor (HIR), purified from transfected cells after solubilization with Triton X-100 (human, UniProt P06213 28-1382, limits assumed); assay: competition with 125I-insulin for solubilised HIR, PEG precipitation; Kd calculated from the competition curve
T1 construct: Detergent-solubilised receptor

[2] = target: T1, Human insulin receptor (HIR), purified …; assay: as above; remark: listed apart in the source
[3] = target: T2, soluble human insulin receptor-immunoglobulin heavy chain chimera (sIR-Fc) (human, UniProt P06213 28-956, limits assumed, Eu3+ label (LANCE) in the TR-FRET assays); assay: TR-FRET competition vs b-S175, sIR-Fc
T2 construct: extracellular domain; construct of Bass et al., 1996; also called HIR-immunoglobulin heavy chain chimera; not shown: immunoglobulin heavy chain constant domains
Procedure: (§1) The TR-FRET assays were performed in a 384-well white microplate with a final volume of 30 μl.

[4] = target: T3, soluble HIR ectodomain (sIR) (human, UniProt P06213-2 28-944, limits assumed); assay: FP competition vs FITC-RP9, sIR
T3 construct: extracellular domain
From the text: Fluorescence polarization assays (FP) were used for peptide competition studies.

[5] = target: T2, soluble human insulin …; assay: TR-FRET competition vs b-S175, sIR-Fc (column as given)
Procedure: as §1

[6] = target: T2, soluble human insulin …; assay: FP competition vs FITC-RP9, sIR-Fc
[7] = target: T4, human insulin receptor (HIR) (human, UniProt P06213 28-1382, limits assumed); assay: RRA, 125I-insulin competition, HIR
[8] = target: T2, soluble human insulin …; assay: TR-FRET competition vs b-RP9, sIR-Fc
From the text: Time-resolved fluorescence resonance energy transfer assays (TR-FRET) were used for peptide competition studies.
This was used to determine IC₅₀ values.

[9] = target: insulin receptor (IR) on mouse free fat cells (mouse, UniProt P15208 28-1372); assay: cell-based or functional assay
[10] = target: T4, human insulin receptor (HIR); assay: 125I-insulin competition, solubilised HIR
[11] = target: human IGF-1 receptor (HIGF-1R) (human, UniProt P08069 31-1367); assay: 125I-IGF-1 competition, solubilised HIGF-1R
[12] = target: T4, human insulin receptor (HIR); assay: cell-based or functional assay
[13] = target: T5, human insulin receptor (HIR), purified from transfected cells after solubilization with Triton X-100 (human, UniProt P06213 28-1382, limits assumed); assay: 125I-insulin competition on HIR
T5 construct: also called WGA-purified recombinant human insulin receptor

insulin receptor (IR) on mouse free fat cells, sequence (P15208 28-1372): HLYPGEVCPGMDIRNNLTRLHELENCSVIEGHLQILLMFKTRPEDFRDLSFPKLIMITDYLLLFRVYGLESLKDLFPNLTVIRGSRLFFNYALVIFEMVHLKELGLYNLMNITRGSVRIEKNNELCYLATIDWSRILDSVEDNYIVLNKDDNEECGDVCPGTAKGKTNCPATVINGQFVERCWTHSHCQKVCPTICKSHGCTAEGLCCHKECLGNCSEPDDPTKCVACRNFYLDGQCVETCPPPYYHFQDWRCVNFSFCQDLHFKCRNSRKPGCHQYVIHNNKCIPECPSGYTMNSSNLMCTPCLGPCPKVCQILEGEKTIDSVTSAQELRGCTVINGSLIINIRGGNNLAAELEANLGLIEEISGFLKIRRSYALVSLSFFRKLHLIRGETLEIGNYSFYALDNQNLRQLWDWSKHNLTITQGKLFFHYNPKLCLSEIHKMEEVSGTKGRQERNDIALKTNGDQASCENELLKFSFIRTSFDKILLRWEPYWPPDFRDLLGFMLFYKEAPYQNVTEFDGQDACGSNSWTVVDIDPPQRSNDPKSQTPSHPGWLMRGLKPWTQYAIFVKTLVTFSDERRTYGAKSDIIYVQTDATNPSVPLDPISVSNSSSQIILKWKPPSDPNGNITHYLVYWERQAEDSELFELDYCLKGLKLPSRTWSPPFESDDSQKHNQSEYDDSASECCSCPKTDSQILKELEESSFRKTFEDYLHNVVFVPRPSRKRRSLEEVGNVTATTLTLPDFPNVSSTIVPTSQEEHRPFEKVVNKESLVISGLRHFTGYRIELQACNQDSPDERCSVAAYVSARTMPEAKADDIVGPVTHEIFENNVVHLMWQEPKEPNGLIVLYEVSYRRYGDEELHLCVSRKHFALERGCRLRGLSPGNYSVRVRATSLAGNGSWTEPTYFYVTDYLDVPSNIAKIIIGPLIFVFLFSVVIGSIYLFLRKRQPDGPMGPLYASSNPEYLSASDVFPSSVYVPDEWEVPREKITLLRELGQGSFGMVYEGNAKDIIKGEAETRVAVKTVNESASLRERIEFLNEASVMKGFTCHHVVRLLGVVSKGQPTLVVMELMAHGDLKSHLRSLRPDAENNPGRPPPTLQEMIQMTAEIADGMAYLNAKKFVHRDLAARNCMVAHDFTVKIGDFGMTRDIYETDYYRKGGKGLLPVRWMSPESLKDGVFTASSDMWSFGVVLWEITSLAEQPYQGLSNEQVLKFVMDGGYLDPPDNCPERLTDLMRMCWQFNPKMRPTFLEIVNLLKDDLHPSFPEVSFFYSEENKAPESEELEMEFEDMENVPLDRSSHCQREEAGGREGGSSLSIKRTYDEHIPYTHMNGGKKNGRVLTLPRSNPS

B1: S371 (peptide)
peptide: GSLDESFYDWFERQLGKK
notes: Synthetic RP9 monomer peptide; also called RP9; S371 (RP9)
B1 showed a Kd [1] of 630 nM and a Kd [2] of 630 nM.

In the case of EEDWLQRNANFYDWFVAELX (C-terminal Lig'; copies joined C-C by chemical linker 9, also called (EE-short-S175-Lig)2-9) [S380], the IC50 [3] is reported as 10 nM and the IC50 [4] is reported as 0.5 nM.

Binder GGTVWPGYEWLRNA [E8 (D120)] has an IC50 [5] of 755 nM, an IC50 [6] of 207 nM and an IC50 [7] of 2200 nM.

Binder FHENFYDWFVQRVSKK (also called D117) [H2C] has an IC50 [3] of 410 nM, an IC50 [4] of 37 nM and an IC50 [8] of 1630 nM. It also gave an IC50 [6] of 50 nM and an IC50 [7] of 700 nM.

B2: S374 (peptide)
peptide: XGSLDESFYDWFERQLGKK
chain: XGSLDESFYDWFERQLGKK
modifications: not fully specified; the two chains are joined N-terminus to N-terminus through chemical linker 17 of Table 3 (Table 7 prints an N-terminal Ald group on each chain)
notes: Synthetic RP9 homodimer (Site 1-Site 1, N-N)
For B2, the Kd [1] was 180 nM.

B3: 537 (peptide)
peptide: MADYKDDDDKGSLDESFYDWFERQLGKKGGSGGSWLDQEWAWVQCEVYGRGCPSAAAGAPVPYPDPLEPRPG
notes: recombinant dimer with tags at both ends; also called RP9-6aa-D8
B3 was tested, and the “FFC Pot.” value [9] was 10 nM, the Kd [10] was 0.092 nM and the Kd [11] was 980 nM.

B4: 535 (peptide)
peptide: MADYKDDDDKGSLDESFYDWFERQLGKKGGSGGSGGSGGSGSLDESFYDWFERQLGKKAAAGAPVPYPDPLEPRPG
With B4 the “Kinase Pot.” value [12] was 1000 nM and the “FFC Pot.” value [9] was 2 nM.

B5: 538 (peptide)
peptide: MADYKDDDDKGSLDESFYDWFERQLGKKGGSGGSGGSGGSWLDQEWAWVQCEVYGRGCPSAAAGAPVPYPDPLEPRPG
notes: recombinant dimer with tags at both ends; also called RP9-12aa-D8
For B5, the “FFC Pot.” value [9] was 10 nM, the Kd [10] was 0.08 nM and the Kd [11] was 710 nM.

B6: RP9 (peptide)
peptide: GSLDESFYDWFERQLGKK
modifications: also: biotin (b-RP9) or fluorescein (FITC-RP9) label where used, site not given here
notes: also called S371; b-RP9
B6 was tested, and the IC50 [3] was 6 nM, the IC50 [4] was 0.03 nM and the IC50 [8] was 42 nM. For the same binder, the IC50 [6] was 10 nM and the IC50 [7] was 44 nM.

B7: S374: 17-(Ald-GSLDESFYDWFERQLGKK)2 (peptide)
peptide: XGSLDESFYDWFERQLGKK
modifications: N-terminal Ald (aldehyde from periodate oxidation of a serine); the two chains joined N-N through chemical linker 17 of Table 3
notes: also called synthetic RP9 homodimer S374
B7: binds [13].

B8: 539 (peptide)
peptide: MADYKDDDDKWLDQEWAWVQCEVYGRGCPSGGSGGSGSLDESFYDWFERQLGKKAAAGAPVPYPDPLEPRPG
notes: recombinant dimer with tags at both ends; also called D8-6aa-RP9
For B8, the “Kinase Pot.” value [12] was 110 nM, the “FFC Pot.” value [9] was 10 nM and the Kd [10] was 0.53 nM.

B9: 521 (peptide)
peptide: MADYKDDDDKGSLDESFYDWFERQLGKKGGSGGSGSLDESFYDWFERQLGKKAAAGAPVPYPDPLEPRPG
notes: recombinant dimer with tags at both ends (FLAG, E-Tag); also called RP9-6aa-RP9
B9 was tested, and the “Kinase Pot.” value [12] was 1400 nM, the “FFC Pot.” value [9] was 3 nM and the Kd [10] was 25 nM.
